The values that follow come from PMC4513881.

Series [1] has as its target T1, DCL1-A (first dsRBD) (Arabidopsis thaliana) (UniProt Q9SP32).
T1 sequence: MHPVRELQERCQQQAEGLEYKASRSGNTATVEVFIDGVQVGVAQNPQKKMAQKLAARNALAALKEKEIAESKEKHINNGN
Nature of the series: fluorescence anisotropy. The conditions noted are these: FA: 10 mM phosphate pH 7.0, 50 nM labeled nucleic acid, temperature not stated; CD: 10 mM phosphate pH 7; NMR complex: 20 mM phosphate pH 7.0, 5 mM TCEP. Background: Fluorescence polarisation rises when a labelled molecule tumbles more slowly, as on binding a larger partner.

Series [2] addresses T2, DCL1-AB (both dsRBDs) (Arabidopsis thaliana) (UniProt Q9SP32).
T2 sequence: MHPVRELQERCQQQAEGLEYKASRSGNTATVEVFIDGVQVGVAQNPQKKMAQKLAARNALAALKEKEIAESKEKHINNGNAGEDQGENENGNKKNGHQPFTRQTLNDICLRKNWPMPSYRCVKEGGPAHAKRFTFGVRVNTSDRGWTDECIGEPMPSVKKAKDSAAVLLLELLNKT
Kind of series: fluorescence anisotropy. The settings on record: FA: 10 mM phosphate pH 7.0, 50 nM labeled nucleic acid, temperature not stated; CD: 10 mM phosphate pH 7; NMR complex: 20 mM phosphate pH 7.0, 5 mM TCEP.

By Kd is commonly meant the constant that tells how readily two partners part at equilibrium. Read a high Kd as lower affinity. Regarding dsDNA, the Kd in series [1] turned out to be 860 nM; in series [2], 680 nM.

miR172a stem-loop (miRNA/miRNA* region): the Kd is 723 nM in series [1] and 67 nM in series [2].
